From patent publication US20170204182A1
Changes are numbered by the printed parent chain.

T1: CD81 (UniProt P60033)
T1 sequence (looked up): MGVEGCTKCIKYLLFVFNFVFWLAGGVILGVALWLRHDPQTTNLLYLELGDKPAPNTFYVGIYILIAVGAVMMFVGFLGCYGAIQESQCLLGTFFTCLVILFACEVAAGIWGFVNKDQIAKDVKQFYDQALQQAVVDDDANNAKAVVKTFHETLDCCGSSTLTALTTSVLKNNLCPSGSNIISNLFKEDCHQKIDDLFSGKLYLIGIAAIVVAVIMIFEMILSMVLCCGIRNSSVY

B1: CD81K13 HC 04-hVH_1_69 / LC 05-hVK_1_39 (antibody, V domains shown)
VH: EVQLVESGGGLVQPGRSLRLSCTASGFNFKDSYLHWVRQAPGQGLEWMGRIDTGNGNVKFDPKFQGRVTITADESTSTAYMELSSLRSEDTAVYYCVPYGYGFHSWGQGTLVTVSS
VL: DIQMTQSPSSLSASVGDRVTITCRASENIYRTLAWYQQKPGKAPKLLIYAATTLASGVPSRFSGSGSGTDFTLTISSLQPEDFATYYCQHFWGTPWTFGQGTKVEIK
B2: CD81K13 HC 04-hVH_1_69 / LC 5b-hVK_1_39 (antibody, V domains shown)
VH: B1 VH
VL: B1 VL with A50G, S56D
B3: CD81K13 HC 04-hVH_1_69 / LC 5b-hVK_1_39-GA (antibody, V domains shown)
VH: B1 VH
VL: B1 VL with A50G, S56D
B4: CD81K13 HC 04-hVH_1_69 / LC 06-hVK_1_39 (antibody, V domains shown)
VH: B1 VH
VL: B1 VL with A84G
B5: CD81K13 HC 04-hVH_1_69 / LC 07-hVK_1_27 (antibody, V domains shown)
VH: B1 VH
VL: B1 VL with A43V, F83V, A84G, H90K
B6: CD81K04 HC GG-05-hVH_1_18 / LC JA_GG-10-hVK_4_1 (antibody, V domains shown)
VH: QVQLVQSGAEVKKPGASVKVSCKASGYTFSSSWMNWVRQAPGQGLEWMGRIYSGDGDAIYAQKLQGRVTMTTDTSTSTAYMELRSLRSDDTAVYYCAREGKTGDLLLRSWGQGTLVTVSS
VL: DIVMTQSPDSLAVSLGERATINCRASKSVSTSIYSYMHWYQQKPGQPPKLLIKYASYLESGVPDRFSGSGSGTDFTLTISSLQAEDVAVYYCEHSREFPFTFGQGTKLEIK
B7: CD81K04 HC JA_GG-14-hVH_1_69 / LC GG-04-hVK_4_1 (antibody, V domains shown)
VH: QVQLVQSGAEVKKPGSSVKVSCKASGYTFSSSWMNWVRQAPGQGLEWMGRIYSGDGDAIYNGKFKGKATITADESTSTAYMELSSLRSEDTAVYYCAREGKTGDLLLRSWGQGTLVTVSS
VL: B6 VL with R24K, A25S, M37L, H38A, K53Y, Y57T, L58R, E93Q, F100Y
B8: CD81K04 HC JA_GG-14-hVH_1_69 / LC JA_GG-07-hVK_7_3 (antibody, V domains shown)
VH: B7 VH
VL: DIVLTQSPASLAVSPGQRATITCRASKSVSTSIYSYMHWYQQKPGQPPKLLIKYASNKDTGVPARFSGSGSGTDFTLTINPVEANDAANYYCLHSREFPYTFGQGTKLEIK

Target: T1, CD81
Assay: cell ELISA

Compared with B1, B2 is lower in ELISA absorbance: 0.776 for the first, 0.428 for the second.

Going from B3 to B4, the ELISA absorbance falls from 0.403 to 0.386.

Going from B5 to B6, the ELISA absorbance rises from 0.085 to 0.841.

B7 and B8 are the same in ELISA absorbance: 0.107 for the first, 0.107 for the second.
